Starred links: 1 amine or outer side, 2 acyl side, 3 side chain; linkers in the order of their positions; H or OH if unused. Non-standard residues stand in square brackets, D forms with d. *: point of attachment. Trp(7-F) = N[C@@H](Cc1c[nH]c2c(F)cccc12)C(=O)O; Trp(7-Me) = Cc1cccc2c(C[C@H](N)C(=O)O)c[nH]c12; d(γGlu) = O=C(O)[C@@H](CCC(=O)[*:2])N[*:1]; C18 diacid = O=C(O)CCCCCCCCCCCCCCCCC(=O)*; γGlu = O=C(O)[C@H](CCC(=O)[*:2])N[*:1]; 2Nal = N[C@@H](Cc1ccc2ccccc2c1)C(=O)O; Palmitoyl = CCCCCCCCCCCCCCCC(=O)*; 3Pal = N[C@@H](Cc1cccnc1)C(=O)O; 4Pal = N[C@@H](Cc1ccncc1)C(=O)O; Nle = CCCC[C@H](N)C(=O)O; AEEA = NCCOCCOCC(=O)O; Sar = CNCC(=O)O
B1: Peptide 96 (peptide)
peptide: Palmitoyl-[γGlu][AEEA][AEEA]GNHWAV[dA]HL[Nle]-NH2
SMILES: CCCCCCCCCCCCCCCC(=O)N[C@@H](CCC(=O)NCCOCCOCC(=O)NCCOCCOCC(=O)NCC(=O)N[C@@H](CC(N)=O)C(=O)N[C@@H](Cc1c[nH]cn1)C(=O)N[C@@H](Cc1c[nH]c2ccccc12)C(=O)N[C@@H](C)C(=O)N[C@H](C(=O)N[C@H](C)C(=O)N[C@@H](Cc1c[nH]cn1)C(=O)N[C@@H](CC(C)C)C(=O)N[C@@H](CCCC)C(N)=O)C(C)C)C(=O)O
B2: Peptide 93 (peptide)
peptide: Palmitoyl-[γGlu][AEEA][AEEA]GNH[2Nal]AVAHL[Nle]-NH2
SMILES: CCCCCCCCCCCCCCCC(=O)N[C@@H](CCC(=O)NCCOCCOCC(=O)NCCOCCOCC(=O)NCC(=O)N[C@@H](CC(N)=O)C(=O)N[C@@H](Cc1c[nH]cn1)C(=O)N[C@@H](Cc1ccc2ccccc2c1)C(=O)N[C@@H](C)C(=O)N[C@H](C(=O)N[C@@H](C)C(=O)N[C@@H](Cc1c[nH]cn1)C(=O)N[C@@H](CC(C)C)C(=O)N[C@@H](CCCC)C(N)=O)C(C)C)C(=O)O
B3: Peptide 7 (peptide)
peptide: Palmitoyl-[d(γGlu)][AEEA][AEEA]GNHWAV[dA]HL[Nle]-NH2
SMILES: CCCCCCCCCCCCCCCC(=O)N[C@H](CCC(=O)NCCOCCOCC(=O)NCCOCCOCC(=O)NCC(=O)N[C@@H](CC(N)=O)C(=O)N[C@@H](Cc1c[nH]cn1)C(=O)N[C@@H](Cc1c[nH]c2ccccc12)C(=O)N[C@@H](C)C(=O)N[C@H](C(=O)N[C@H](C)C(=O)N[C@@H](Cc1c[nH]cn1)C(=O)N[C@@H](CC(C)C)C(=O)N[C@@H](CCCC)C(N)=O)C(C)C)C(=O)O
B4: Peptide 99 (peptide)
peptide: {C18 diacid}-[γGlu][AEEA][AEEA]GNH[2Nal]AV[dA]HL[Nle][Sar]-NH2
SMILES: CCCC[C@H](NC(=O)[C@H](CC(C)C)NC(=O)[C@H](Cc1c[nH]cn1)NC(=O)[C@@H](C)NC(=O)[C@@H](NC(=O)[C@H](C)NC(=O)[C@H](Cc1ccc2ccccc2c1)NC(=O)[C@H](Cc1c[nH]cn1)NC(=O)[C@H](CC(N)=O)NC(=O)CNC(=O)COCCOCCNC(=O)COCCOCCNC(=O)CC[C@H](NC(=O)CCCCCCCCCCCCCCCCC(=O)O)C(=O)O)C(C)C)C(=O)N(C)CC(N)=O
B5: Peptide 105 (peptide)
peptide: {C18 diacid}-[γGlu][AEEA][AEEA]GNH[2Nal]AV[dA]HL[Nle]-NH2
SMILES: CCCC[C@H](NC(=O)[C@H](CC(C)C)NC(=O)[C@H](Cc1c[nH]cn1)NC(=O)[C@@H](C)NC(=O)[C@@H](NC(=O)[C@H](C)NC(=O)[C@H](Cc1ccc2ccccc2c1)NC(=O)[C@H](Cc1c[nH]cn1)NC(=O)[C@H](CC(N)=O)NC(=O)CNC(=O)COCCOCCNC(=O)COCCOCCNC(=O)CC[C@H](NC(=O)CCCCCCCCCCCCCCCCC(=O)O)C(=O)O)C(C)C)C(N)=O
B6: Peptide 95 (peptide)
peptide: {C18 diacid}-[γGlu][AEEA][AEEA][AEEA][AEEA]GN[3Pal][Trp(7-Me)]AV[dA]HL[Nle]-NH2
SMILES: CCCC[C@H](NC(=O)[C@H](CC(C)C)NC(=O)[C@H](Cc1c[nH]cn1)NC(=O)[C@@H](C)NC(=O)[C@@H](NC(=O)[C@H](C)NC(=O)[C@H](Cc1c[nH]c2c(C)cccc12)NC(=O)[C@H](Cc1cccnc1)NC(=O)[C@H](CC(N)=O)NC(=O)CNC(=O)COCCOCCNC(=O)COCCOCCNC(=O)COCCOCCNC(=O)COCCOCCNC(=O)CC[C@H](NC(=O)CCCCCCCCCCCCCCCCC(=O)O)C(=O)O)C(C)C)C(N)=O
B7: Peptide 98 (peptide)
peptide: {C18 diacid}-[γGlu][AEEA][AEEA][AEEA][AEEA]GNHWAV[dA]HL[Nle]-NH2
SMILES: CCCC[C@H](NC(=O)[C@H](CC(C)C)NC(=O)[C@H](Cc1c[nH]cn1)NC(=O)[C@@H](C)NC(=O)[C@@H](NC(=O)[C@H](C)NC(=O)[C@H](Cc1c[nH]c2ccccc12)NC(=O)[C@H](Cc1c[nH]cn1)NC(=O)[C@H](CC(N)=O)NC(=O)CNC(=O)COCCOCCNC(=O)COCCOCCNC(=O)COCCOCCNC(=O)COCCOCCNC(=O)CC[C@H](NC(=O)CCCCCCCCCCCCCCCCC(=O)O)C(=O)O)C(C)C)C(N)=O
B8: Peptide 102 (peptide)
peptide: {C18 diacid}-[γGlu][AEEA][AEEA]GNH[Trp(7-F)]AV[dA]HL[Nle][Sar]-NH2
SMILES: CCCC[C@H](NC(=O)[C@H](CC(C)C)NC(=O)[C@H](Cc1c[nH]cn1)NC(=O)[C@@H](C)NC(=O)[C@@H](NC(=O)[C@H](C)NC(=O)[C@H](Cc1c[nH]c2c(F)cccc12)NC(=O)[C@H](Cc1c[nH]cn1)NC(=O)[C@H](CC(N)=O)NC(=O)CNC(=O)COCCOCCNC(=O)COCCOCCNC(=O)CC[C@H](NC(=O)CCCCCCCCCCCCCCCCC(=O)O)C(=O)O)C(C)C)C(=O)N(C)CC(N)=O
B9: Peptide 104 (peptide)
peptide: {C18 diacid}-[γGlu][AEEA][AEEA]GNH[Trp(7-Me)]AV[dA]HL[Nle][Sar]-NH2
SMILES: CCCC[C@H](NC(=O)[C@H](CC(C)C)NC(=O)[C@H](Cc1c[nH]cn1)NC(=O)[C@@H](C)NC(=O)[C@@H](NC(=O)[C@H](C)NC(=O)[C@H](Cc1c[nH]c2c(C)cccc12)NC(=O)[C@H](Cc1c[nH]cn1)NC(=O)[C@H](CC(N)=O)NC(=O)CNC(=O)COCCOCCNC(=O)COCCOCCNC(=O)CC[C@H](NC(=O)CCCCCCCCCCCCCCCCC(=O)O)C(=O)O)C(C)C)C(=O)N(C)CC(N)=O
B10: Peptide 106 (peptide)
peptide: {C18 diacid}-[γGlu][AEEA][AEEA]GNHW[dA]V[dA]HL[Nle]-NH2
SMILES: CCCC[C@H](NC(=O)[C@H](CC(C)C)NC(=O)[C@H](Cc1c[nH]cn1)NC(=O)[C@@H](C)NC(=O)[C@@H](NC(=O)[C@@H](C)NC(=O)[C@H](Cc1c[nH]c2ccccc12)NC(=O)[C@H](Cc1c[nH]cn1)NC(=O)[C@H](CC(N)=O)NC(=O)CNC(=O)COCCOCCNC(=O)COCCOCCNC(=O)CC[C@H](NC(=O)CCCCCCCCCCCCCCCCC(=O)O)C(=O)O)C(C)C)C(N)=O
B11: Peptide 103 (peptide)
peptide: {C18 diacid}-[γGlu][AEEA][AEEA][AEEA][AEEA]GNH[Trp(7-Me)]AV[dA]HL[Nle][Sar]-NH2
SMILES: CCCC[C@H](NC(=O)[C@H](CC(C)C)NC(=O)[C@H](Cc1c[nH]cn1)NC(=O)[C@@H](C)NC(=O)[C@@H](NC(=O)[C@H](C)NC(=O)[C@H](Cc1c[nH]c2c(C)cccc12)NC(=O)[C@H](Cc1c[nH]cn1)NC(=O)[C@H](CC(N)=O)NC(=O)CNC(=O)COCCOCCNC(=O)COCCOCCNC(=O)COCCOCCNC(=O)COCCOCCNC(=O)CC[C@H](NC(=O)CCCCCCCCCCCCCCCCC(=O)O)C(=O)O)C(C)C)C(=O)N(C)CC(N)=O
B12: Peptide 100 (peptide)
peptide: {C18 diacid}-[γGlu][AEEA][AEEA]RNHWAV[dA]HL[Nle][Sar]-NH2
SMILES: CCCC[C@H](NC(=O)[C@H](CC(C)C)NC(=O)[C@H](Cc1c[nH]cn1)NC(=O)[C@@H](C)NC(=O)[C@@H](NC(=O)[C@H](C)NC(=O)[C@H](Cc1c[nH]c2ccccc12)NC(=O)[C@H](Cc1c[nH]cn1)NC(=O)[C@H](CC(N)=O)NC(=O)[C@H](CCCNC(=N)N)NC(=O)COCCOCCNC(=O)COCCOCCNC(=O)CC[C@H](NC(=O)CCCCCCCCCCCCCCCCC(=O)O)C(=O)O)C(C)C)C(=O)N(C)CC(N)=O
B13: Peptide 97 (peptide)
peptide: {C18 diacid}-[γGlu][AEEA][AEEA]GNHWAV[dA]HL[Nle]-NH2
SMILES: CCCC[C@H](NC(=O)[C@H](CC(C)C)NC(=O)[C@H](Cc1c[nH]cn1)NC(=O)[C@@H](C)NC(=O)[C@@H](NC(=O)[C@H](C)NC(=O)[C@H](Cc1c[nH]c2ccccc12)NC(=O)[C@H](Cc1c[nH]cn1)NC(=O)[C@H](CC(N)=O)NC(=O)CNC(=O)COCCOCCNC(=O)COCCOCCNC(=O)CC[C@H](NC(=O)CCCCCCCCCCCCCCCCC(=O)O)C(=O)O)C(C)C)C(N)=O
B14: Peptide 94 (peptide)
peptide: Palmitoyl-[γGlu][AEEA][AEEA]GN[4Pal]WAV[dA]HL[Nle]-NH2
SMILES: CCCCCCCCCCCCCCCC(=O)N[C@@H](CCC(=O)NCCOCCOCC(=O)NCCOCCOCC(=O)NCC(=O)N[C@@H](CC(N)=O)C(=O)N[C@@H](Cc1ccncc1)C(=O)N[C@@H](Cc1c[nH]c2ccccc12)C(=O)N[C@@H](C)C(=O)N[C@H](C(=O)N[C@H](C)C(=O)N[C@@H](Cc1c[nH]cn1)C(=O)N[C@@H](CC(C)C)C(=O)N[C@@H](CCCC)C(N)=O)C(C)C)C(=O)O
B15: Peptide 101 (peptide)
peptide: {C18 diacid}-[γGlu][AEEA][AEEA][AEEA][AEEA]GNH[Trp(7-F)]AV[dA]HL[Nle][Sar]-NH2
SMILES: CCCC[C@H](NC(=O)[C@H](CC(C)C)NC(=O)[C@H](Cc1c[nH]cn1)NC(=O)[C@@H](C)NC(=O)[C@@H](NC(=O)[C@H](C)NC(=O)[C@H](Cc1c[nH]c2c(F)cccc12)NC(=O)[C@H](Cc1c[nH]cn1)NC(=O)[C@H](CC(N)=O)NC(=O)CNC(=O)COCCOCCNC(=O)COCCOCCNC(=O)COCCOCCNC(=O)COCCOCCNC(=O)CC[C@H](NC(=O)CCCCCCCCCCCCCCCCC(=O)O)C(=O)O)C(C)C)C(=O)N(C)CC(N)=O

Target: human GRP receptor (human, UniProt P30550 1-384)
Experiment: cell-based or functional assay

Sequence of human GRP receptor (P30550 whole entry): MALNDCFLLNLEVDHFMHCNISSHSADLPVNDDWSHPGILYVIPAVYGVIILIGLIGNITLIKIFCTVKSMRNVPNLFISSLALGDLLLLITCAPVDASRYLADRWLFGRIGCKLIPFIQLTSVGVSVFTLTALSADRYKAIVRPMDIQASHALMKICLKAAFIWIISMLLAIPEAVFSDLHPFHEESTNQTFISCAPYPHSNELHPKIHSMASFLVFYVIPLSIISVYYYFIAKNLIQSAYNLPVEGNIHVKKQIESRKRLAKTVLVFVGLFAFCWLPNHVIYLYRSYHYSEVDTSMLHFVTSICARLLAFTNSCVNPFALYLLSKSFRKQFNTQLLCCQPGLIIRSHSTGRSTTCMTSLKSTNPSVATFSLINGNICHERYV

| Binder | hIP1 GRPR EC50 [µM] |
| --- | --- |
| B1 | 0.00158 |
| B2 | 0.00695 |
| B3 | 0.0006 |
| B4 | > 10 |
| B5 | 0.232 |
| B6 | 0.11 |
| B7 | 0.0112 |
| B8 | 0.181 |
| B9 | 0.221 |
| B10 | 0.467 |
| B11 | 0.345 |
| B12 | 0.0999 |
| B13 | 0.00891 |
| B14 | 0.00145 |
| B15 | 0.352 |
